Experimental data taken from patent publication US20260167721A1 (ABLEXIS, published 2026).
Numbering of substitutions follows the chain as printed.

B1: CD3 × CD33-BspAb115 (bispecific antibody)
chain 1: NFMLTQPHSVSESPGKTVTISCTRTSGSIASNYVQWYQQRPGSSPTTVIYEDNQRPSGVPDRFSGSIDSSSNSASLTISGLKTEDEAAYYCQSYDRSNRVFGCGTKLTVLGGGGSGGGGSGGGGSGGGGSQVQLQESGPGLVKPSETLSLTCTVSGGSISSYYWSWIRQPAGKCLEWIGRIYTSGSTKYNPSLKSRVTMSVDTSKNQFSLKLISVTAADTAVYFCARERIRDLYFDYWGQGTLVTVSSDKTHTCPPCPAPEFEGGPSVFLFPPKPKDTLMISRTPEVTCVVVDVSHEDPEVKFNWYVDGVEVHNAKTKPREEQYNSTYRVVSVLTVLHQDWLNGKEYKCKVSNKALPASIEKTISKAKGQPREPQVYTLPPCREEMTKNQVSLWCLVKGFYPSDIAVEWESNGQPENNYKTTPPVLDSDGSFFLYSKLTVDKSRWQQGNVFSCSVMHEALHNHYTQKSLSLSPGK
chain 2: EVQLVQSGAEVKKPGSSVKVSCKASGYTITDSNIHWVRQAPGQSLEWIGYIYPYNGGTDYNQKFKNRATLTVDNPTNTAYMELSSLRSEDTAFYYCVNGNPWLAYWGQGTLVTVSSASTKGPSVFPLAPSSKSTSGGTAALGCLVKDYFPEPVTVSWNSGALTSGVHTFPAVLQSSGLYSLSSVVTVPSSSLGTQTYICNVNHKPSNTKVDKRVEPKSCDKTHTCPPCPAPEFEGGPSVFLFPPKPKDTLMISRTPEVTCVVVDVSHEDPEVKFNWYVDGVEVHNAKTKPREEQYNSTYRVVSVLTVLHQDWLNGKEYKCKVSNKALPASIEKTISKAKGQPREPQVCTLPPSREEMTKNQVSLSCAVKGFYPSDIAVEWESNGQPENNYKTTPPVLDSDGSFFLVSKLTVDKSRWQQGNVFSCSVMHEALHNRFTQKSLSLSPGK
chain 3: DIQLTQSPSTLSASVGDRVTITCRASESLDNYGIRFLTWFQQKPGKAPKLLMYAASNQGSGVPSRFSGSGSGTEFTLTISSLQPDDFATYYCQQTKEVPWSFGQGTKVEVKRTVAAPSVFIFPPSDEQLKSGTASVVCLLNNFYPREAKVQWKVDNALQSGNSQESVTEQDSKDSTYSLSSTLTLSKADYEKHKVYACEVTHQGLSSPVTKSFNRGEC
B2: CD3 × CD33-BspAb71 (bispecific antibody)
chain 1: EVQLVESGGGLVKPGGSLRLSCAASGFTFSSYSMNWVRQAPGKCLEWVSSISRSSSYIYYADSVKGRFTLSRDNAKNSLYLQMNSLRGEDTAIYYCGRDGKGAIFLDYWGQGTLVTVSSGGGGSGGGGSGGGGSGGGGSSYELTQPPSVSVSPGQTARITCSGDALPKKYAYWYQQKSGQAPVLVIYEDSKRPSGIPERFSGSSSGTMATLTISGAQVEDEADYYCYSTHSSGNHRVFGCGTKLTVLDKTHTCPPCPAPEFEGGPSVFLFPPKPKDTLMISRTPEVTCVVVDVSHEDPEVKFNWYVDGVEVHNAKTKPREEQYNSTYRVVSVLTVLHQDWLNGKEYKCKVSNKALPASIEKTISKAKGQPREPQVYTLPPCREEMTKNQVSLWCLVKGFYPSDIAVEWESNGQPENNYKTTPPVLDSDGSFFLYSKLTVDKSRWQQGNVFSCSVMHEALHNHYTQKSLSLSPGK
chain 2: B1 chain 2
chain 3: B1 chain 3
B3: CD3 × CD33-BspAb37 (bispecific antibody)
chain 1: not shown
chain 2: B1 chain 2
chain 3: B1 chain 3
B4: CD3 × CD33-BspAb125 (bispecific antibody)
chain 1: not shown
chain 2: B1 chain 2
chain 3: B1 chain 3
B5: High affinity Control (Control Humanized anti-CD3 (high affinity) scFv-Fc knob/TM with gemtuzumab arm) (bispecific antibody)
scFv: EVQLVESGGGLVQPGGSLRLSCAASGFTFSTYAMNWVRQAPGKGLEWVGRIRSKYNNYATYYADSVKGRFTISRDDSKNTLYLQMNSLRAEDTAVYYCVRHGNFGDSYVSWFAYWGQGTLVTVSSGKPGSGKPGSGKPGSGKPGSQAVVTQEPSLTVSPGGTVTLTCGSSTGAVTTSNYANWVQQKPGKSPRGLIGGTNKRAPGVPARFSGSLLGGKAALTISGAQPEDEADYYCALWYSNHWVFGGGTKLTVLGGGGSDKTHTCPPCPAPEFEGGPSVFLFPPKPKDTLMISRTPEVTCVVVDVSHEDPEVKFNWYVDGVEVHNAKTKPREEQYNSTYRVVSVLTVLHQDWLNGKEYKCKVSNKALPASIEKTISKAKGQPREPQVYTLPPCREEMTKNQVSLWCLVKGFYPSDIAVEWESNGQPENNYKTTPPVLDSDGSFFLYSKLTVDKSRWQQGNVFSCSVMHEALHNHYTQKSLSLSPGK
heavy: B1 chain 2
light: B1 chain 3
B6: CD3 × CD33-BspAb116 (bispecific antibody)
chain 1: NFMLTQPHSVSESPGKTVTISCTRSSGSIASNYVQWYQQRPGSSPTTVIYEDNQRPSGVPDRFSGSIDSSSNSASLTISGLKTEDEAYYYCQSFDSSNRVFGCGTKLTVLGGGGSGGGGSGGGGSGGGGSQVQLQESGPGLVKPSQTLSLTCTVSGGSISSGGYYWSWIRQHPGKCLEWIGYIYYSGSTYYNPSLKSRVTISVDTSKDQFSLKLSSVTAADTAVYYCARERKTSLPFDIWGQGTMVTVSSDKTHTCPPCPAPEFEGGPSVFLFPPKPKDTLMISRTPEVTCVVVDVSHEDPEVKFNWYVDGVEVHNAKTKPREEQYNSTYRVVSVLTVLHQDWLNGKEYKCKVSNKALPASIEKTISKAKGQPREPQVYTLPPCREEMTKNQVSLWCLVKGFYPSDIAVEWESNGQPENNYKTTPPVLDSDGSFFLYSKLTVDKSRWQQGNVFSCSVMHEALHNHYTQKSLSLSPGK
chain 2: B1 chain 2
chain 3: B1 chain 3
B7: Low affinity Control (Control Humanized anti-CD3 (low affinity) scFv-Fc knob/TM with gemtuzumab arm) (bispecific antibody)
scFv: B5 scFv with A113D
heavy: B1 chain 2
light: B1 chain 3

Each binder was assayed against T1, human CD3 (on human Pan-T cells or donor PBMC) (human, UniProt P07766 23-207; P04234 22-171; P09693 23-182; P20963 22-164) (assay: cell-based or functional assay).
T1 sequence (P07766 23-207, chain 1 of 4): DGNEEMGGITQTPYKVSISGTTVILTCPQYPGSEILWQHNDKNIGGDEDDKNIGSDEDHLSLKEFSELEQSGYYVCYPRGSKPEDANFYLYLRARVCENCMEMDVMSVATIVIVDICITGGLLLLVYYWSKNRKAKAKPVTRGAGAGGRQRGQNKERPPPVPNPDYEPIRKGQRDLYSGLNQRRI
T1 sequence (P04234 22-171, chain 2 of 4): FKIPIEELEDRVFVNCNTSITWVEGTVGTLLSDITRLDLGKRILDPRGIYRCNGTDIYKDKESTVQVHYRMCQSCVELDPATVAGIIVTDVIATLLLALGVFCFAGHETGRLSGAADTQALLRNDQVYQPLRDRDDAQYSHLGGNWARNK
T1 sequence (P09693 23-182, chain 3 of 4): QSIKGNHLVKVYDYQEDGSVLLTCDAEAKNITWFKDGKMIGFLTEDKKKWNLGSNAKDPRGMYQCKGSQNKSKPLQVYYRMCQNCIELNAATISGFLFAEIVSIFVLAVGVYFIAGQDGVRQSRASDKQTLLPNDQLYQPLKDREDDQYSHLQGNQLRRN
T1 sequence (P20963 22-164, chain 4 of 4): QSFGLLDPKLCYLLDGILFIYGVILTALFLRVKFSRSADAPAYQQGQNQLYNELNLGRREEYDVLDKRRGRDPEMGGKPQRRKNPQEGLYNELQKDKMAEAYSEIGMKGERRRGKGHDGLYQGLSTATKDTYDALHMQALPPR

Row | RTCC Assay, Donor 0, EC50 [pM] | RTCC Assay, Donor 0, gMFI max [gMFI] | RTCC Assay, Donor 1, EC50 [pM] | RTCC Assay, Donor 1, gMFI max [gMFI] | RTCC Assay, Donor 2, EC50 [pM] | RTCC Assay, Donor 2, gMFI max [gMFI] | RTCC Assay, Donor 3, EC50 [pM] | RTCC Assay, Donor 3, gMFI max [gMFI] | Binder
1 | 54 | 38700 | 6 | 63000 | 9 | 51900 | 11 | 82700 | B1
2 | 479 | 23900 | 27 | 63000 | 83 | 57500 | 377 | 78600 | B2
3 | 172 | 31600 | 10 | 70600 | 42 | 59200 | 53 | 82300 | B3
4 | 166 | 26700 | 27 | 65500 | 49 | 54600 | 55 | 84200 | B4
5 | 908 | 75100 | 40 | 81700 | 39 | 82900 | 31 | 87200 | B5
6 | 126 | 24500 | 45 | 66000 | 121 | 52800 | 171 | 65800 | B6
7 | 23700 | 59700 | 5020 | 122000 | 6680 | 82100 | 299 | 104000 | B7

Target: T1, human CD3 (on human Pan-T cells or …)
Assay: cell-based or functional assay
Remark: another data set of the same source

Row | Cytokine Release Assay (IFNγ), Donor 0, EC50 [pM] | Cytokine Release Assay (IFNγ), Donor 0, gMFI max [gMFI] | Cytokine Release Assay (IFNγ), Donor 1, EC50 [pM] | Cytokine Release Assay (IFNγ), Donor 1, gMFI max [gMFI] | Cytokine Release Assay (IFNγ), Donor 2, EC50 [pM] | Cytokine Release Assay (IFNγ), Donor 2, gMFI max [gMFI] | Cytokine Release Assay (IFNγ), Donor 3, EC50 [pM] | Cytokine Release Assay (IFNγ), Donor 3, gMFI max [gMFI] | Binder
8 | 41.8 | 1.6e+06 | 191 | 45100 | 39.6 | 66800 | 40.2 | 475000 | B1
9 | – | 812000 | – | 5380 | 1910 | 27700 | – | 332000 | B2
10 | 252 | 1.06e+06 | – | 5560 | 140 | 32900 | 1760 | 317000 | B3
11 | ~12300 | 958000 | – | 4940 | 103 | 16200 | 63 | 170000 | B4
12 | 45 | 2.82e+06 | 6990 | 912000 | 2160 | 1.41e+06 | 126 | 1.68e+06 | B5
13 | – | 187000 | – | 5440 | 177 | 14100 | 1510 | 167000 | B6
14 | 308 | 2.92e+06 | 14400 | 129000 | 16400 | 712000 | 11400 | 1.08e+06 | B7
